Residue numbers refer to the chain shown, from its start. Names may count otherwise. Each block holds one binder with its values, some of them ahead of it.
Target: T1, Factor IXa (UniProt P00740 47-191; P00740 227-461)
T1 construct: also called FIXa
Test: functional Kd from intrinsic Xase FXa-generation assay; 0.25 nM FVIIIa, 0-20 nM FIXa, 200 nM FX, 20 uM phospholipids
Protocol: Kinetic analysis of FXa generation was performed by an intrinsic Xase assay, as described with modifications (Wilhelm, et al. (2021) Blood 137:2532-2543; Lollar, et al. (1989) Biochemistry 28 (2): 666-674). Activated FVIII (FVIIIa) was generated by incubating 25 nM FVIII with 100 nM thrombin for 30 seconds and thereafter quenched with hirudin (150 nM). […] At various time intervals (0.25-2 minutes), aliquots of the reaction mixture were quenched in 20 mM HEPES, 150 mM NaCl, 25 mM EDTA, 0.1% polyethylene glycol-8000, pH 7.4. The amount of FXa in each quenched sample was assessed using Spectrozyme® Xa by measuring absorbance at 405 nm in SpectraMax® 190 Microplate reader (Molecular Devices) and comparing the results to a prepared FXa standard curve.
TABLE 1 Biochemical Characterization of FVIII Proteins. Specific activity was determined by an aPTT based clotting assay measurement of clotting activity relative to protein concentration. Kinetic values were determined for FX activation by an intrinsic Xase assay using equimolar FVIIIa and FIXa (0.25 nM) 0.25 nM FVIIIa, 0.25 nM or 0-20 nM FIXa and 0-500 nM FX in the presence of 20 μM phospholipids. […] Data are represented as means ± SEM from at least two independent experiments.

T1 sequence (P00740 47-191 limits assumed, form in doubt, chain 1 of 2): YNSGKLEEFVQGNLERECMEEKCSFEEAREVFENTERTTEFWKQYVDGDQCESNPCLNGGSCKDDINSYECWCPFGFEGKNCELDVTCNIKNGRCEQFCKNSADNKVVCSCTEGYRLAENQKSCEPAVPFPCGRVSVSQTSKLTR
T1 sequence (P00740 227-461 limits assumed, form in doubt, chain 2 of 2): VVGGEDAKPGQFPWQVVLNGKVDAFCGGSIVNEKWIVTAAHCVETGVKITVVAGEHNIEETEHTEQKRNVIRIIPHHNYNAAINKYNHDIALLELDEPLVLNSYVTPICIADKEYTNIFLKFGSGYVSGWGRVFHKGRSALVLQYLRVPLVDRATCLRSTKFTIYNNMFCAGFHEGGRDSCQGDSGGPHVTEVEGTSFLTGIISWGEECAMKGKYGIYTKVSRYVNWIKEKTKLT

Kd: 1.2 nM
B1: FVIIIa-QQVV (thrombin-activated B-domain deleted FVIII R336Q/R562Q/D519V/E665V) (other)
chain 1: ATRRYYLGAVELSWDYMQSDLGELPVDARFPPRVPKSFPFNTSVVYKKTLFVEFTDHLFNIAKPRPPWMGLLGPTIQAEVYDTVVITLKNMASHPVSLHAVGVSYWKASEGAEYDDQTSQREKEDDKVFPGGSHTYVWQVLKENGPMASDPLCLTYSYLSHVDLVKDLNSGLIGALLVCREGSLAKEKTQTLHKFILLFAVFDEGKSWHSETKNSLMQDRDAASARAWPKMHTVNGYVNRSLPGLIGCHRKSVYWHVIGMGTTPEVHSIFLEGHTFLVRNHRQASLEISPITFLTAQTLLMDLGQFLLFCHISSHQHDGMEAYVKVDSCPEEPQLQMKNNEEAEDYDDDLTDSEMDVVRFDDDNSPSFIQIR
chain 2: SVAKKHPKTWVHYIAAEEEDWDYAPLVLAPDDRSYKSQYLNNGPQRIGRKYKKVRFMAYTDETFKTREAIQHESGILGPLLYGEVGDTLLIIFKNQASRPYNIYPHGITDVRPLYSRRLPKGVKHLKDFPILPGEIFKYKWTVTVEVGPTKSDPRCLTRYYSSFVNMERDLASGLIGPLLICYKESVDQQGNQIMSDKRNVILFSVFDENRSWYLTENIQRFLPNPAGVQLEDPEFQASNIMHSINGYVFDSLQLSVCLHEVAYWYILSIGAQTDFLSVFFSGYTFKHKMVYVDTLTLFPFSGETVFMSMENPGLWILGCHNSDFRNRGMTALLKVSSCDKNTGDYYEDSYEDISAYLLSKNNAIEPR
chain 3: SFQKKTRHYFIAAVERLWDYGMSSSPHVLRNRAQSGSVPQFKKVVFQEFTDGSFTQPLYRGELNEHLGLLGPYIRAEVEDNIMVTFRNQASRPYSFYSSLISYEEDQRQGAEPRKNFVKPNETKTYFWKVQHHMAPTKDEFDCKAWAYFSDVDLEKDVHSGLIGPLLVCHTNTLNPAHGRQVTVQEFALFFTIFDETKSWYFTENMERNCRAPCNIQMEDPTFKENYRFHAINGYIMDTLPGLVMAQDQRIRWYLLSMGSNENIHSIHFSGHVFTVRKKEEYKMALYNLYPGVFETVEMLPSKAGIWRVECLIGEHLHAGMSTLFLVYSNKCQTPLGMASGHIRDFQITASGQYGQWAPKLARLHYSGSINAWSTKEPFSWIKVDLLAPMIIHGIKTQGARQKFSSLYISQFIIMYSLDGKKWQTYRGNSTGTLMVFFGNVDSSGIKHNIFNPPIIARYIRLHPTHYSIRSTLRMELMGCDLNSCSMPLGMESKAISDAQITASSYFTNMFATWSPSKARLHLQGRSNAWRPQVNNPKEWLQVDFQKTMKVTGVTTQGVKSLLTSMYVKEFLISSSQDGHQWTLFFQNGKVKVFQGNQDSFTPVVNSLDPPLLTRYLRIHPQSWVHQIALRMEVLGCEAQDLY
notes: also called FVIII-QQVV; FVIII-QQ/VV

Kd: 1.6 nM
B2: FVIIIa-VV (thrombin-activated B-domain deleted FVIII D519V/E665V) (other)
chain 1: B1 chain 1 with Q336R
chain 2: B1 chain 2 with Q190R
chain 3: B1 chain 3
notes: also called FVIII-VV

Source: patent US20250250322A1 (CHILDREN S HOSPITAL OF PHILADELPHIA, published 2025)
